Results as given in the supplement of paper PMC12042874.
± gives the uncertainty stated by the source.

Experiment: amyloid nucleation score (Sup35N fusion, yeast selection) (log enrichment); library NNK1; higher = more nucleation; inactive = no reads after selection
Procedure, shortened: (§1)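 Libraries of peptides of 20 random codons fused to Sup35N were expressed in psi-negative yeast and induced 24 hours with 100 μM copper sulfate. Selection was 7 days at 30°C on medium lacking adenine and uracil, and plasmid inserts were Illumina-sequenced before and after selection. Nucleation score is the DiMSum log enrichment of output over input reads, centred on the mode score of non-aggregating sequences, and sequences with under 100 input reads were left out.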

Substance | amyloid nucleation score
CSDKKLGEWSASWNCNRDRM | -0.171 ± 1.7
KNRQLTRLFYTWELRTGTVG | -0.227 ± 0.61
ICVSSGSVIIIVTYFAKCPA | 0.484 ± 0.24
DHVSLSDSRKKRSQIGIIHA | 0.978 ± 0.45
LGLGQSGRV | -0.15 ± 0.71
GSCCVKCDIHI | 0.167 ± 0.53
EVEIFILNLLFIFPNQKARW | 4.17 ± 0.12
RTCYNRDTEMSRGCYTMRVA | -0.554 ± 0.77
YVYSYLGGARGCVFKEKDPP | 0.586 ± 0.47
VKVRFIRIYYFFCNSKDFRG | -0.308 ± 0.31
RLSYISPPSVYLALSRSRMD | 0.229 ± 0.75
AVFLMFRYASFTYWM | 0.444 ± 1.2
HPGMTSAASVCWFHGRVLTL | 0.494 ± 0.51
HRIITCPFTSWNH | 0.816 ± 0.54
RVQKNLINDFSESYPLCHWY | -0.553 ± 0.42
SSFRVGTIVTNSAWRWSPCW | 5.4 ± 0.062
ESKEPFLCIQDITVSSFLPF | -1.69 ± 2.4
LGVMMFRCVL | 3.79 ± 0.16
LNISQRRIYFWSYWLHHITY | -0.282 ± 0.6
NWVAYIPKDNVWVVRGKLKG | 0.753 ± 0.53
ILVYERTYFRNLQWIIRWFS | -0.356 ± 0.22
VCAQFSRGRIFTAIVIGWTQ | 0.857 ± 0.64
FTSPVIKY | 0.089 ± 0.89
RAIIGFSLSQRGYLPNTDLR | 3.1 ± 0.095
IYQLDVLGFDFN | inactive

Substance | amyloid nucleation score
AVCIYRHRLVTGSWWLSIS | 0.359 ± 0.39
FISSNDIYGGATGWDSSDVT | -0.743 ± 0.36
VWLCLRIVVSGNNRACFICV | 1.46 ± 0.19
FRWYRLRIIKSFSGNSASVR | 3.1 ± 0.074
TNGLCFI | -0.833 ± 0.74
SGAVIYANKFYVISCHNWSY | 7.478 ± 0.057
GGYVWVTTSGPVFIQVMNMW | 8.136 ± 0.06
LLWISRTRPYWLLFSVWKLA | -0.107 ± 0.9
TCRCTKLTSAYMLRVWSVQF | -0.332 ± 0.55
MVSIWINFT | 6.38 ± 0.08
DYPCRRGDLRRG | 0.642 ± 0.95
GLVRDTTTMNVSLSVMSSAR | 1.39 ± 0.84
LIGRIGDFLA | 0.097 ± 0.72
GMALKLFCALT | 0.078 ± 0.89
MLSTTLALLTERSFGAY | 0.021 ± 0.39
AYWGHITGKVKFMEAAPLDV | 1.63 ± 0.73
LFHANQKHAGWSRASTLEAC | -0.954 ± 0.54
VSKRFRFLRTLFIEECDLRH | 0.576 ± 0.32
GRGVLDYNGTTKKARVNRLC | inactive
SKSTYSLIGLGTFISRFNGN | 1.03 ± 0.36
EVGRSCWLGSL | -0.344 ± 0.68
SGIYGCSGRQDIKSKNYGSR | 1.12 ± 0.56
IFNSNLLLTATRGDSVIWPY | 3.26 ± 0.14
HVGHCLLLKFQSIWDFWCVC | 0.237 ± 0.69
GKNFSTMAWP | -1.25 ± 2.7

Substance | amyloid nucleation score
RRYCDTTVFHGYSVSCRAYG | -0.842 ± 0.74
SGTRFLFEPSELINPYNHRC | 1.15 ± 0.68
SNSLCETWSRWWKRMFTDTF | 0.179 ± 0.48
QWRFKVRVHVEVSSSGVCSI | inactive
YCGMKVDVVIVGRHVFRISF | 0.512 ± 0.41
TIFGHVRGSYETKWMWAPWR | 2.98 ± 0.12
SKLYLIEVFLYA | -0.468 ± 0.66
MYPRSCIHVMCFTVVKASVG | -1.26 ± 0.74
RTYSFC | -0.41 ± 0.93
NGYWLSFWTSRY | 1.63 ± 0.46
IKYINDITFLVLPYWFI | 3.6 ± 0.072
LCMVAQLWYQPV | 2.01 ± 0.16
VRISWRGGGPLSCDVCACMT | 0.479 ± 1.2
RAAKF | -1.15 ± 0.58
SCHVTFKVFFLFAGPCREVL | 1.98 ± 0.27
DCDGVLSLCIMVHEIYRKVG | inactive
HLGAYYTGI | 0.984 ± 0.36
RFIWFLVYVNTCYARC | 2.86 ± 0.25
IGVYSKNAQKGIRRDWCLWN | 1.33 ± 0.62
ELLMERMRQLVFPPIIYRLN | 0.44 ± 0.62
LHLFGQ | 0.067 ± 0.38
SACNYVRRNVAHVRLLSL | 0.564 ± 0.53
IKWLGLTSHRWIYTSGLRIL | inactive
WSLWARWSFRHRCQRMHLLL | 0.174 ± 0.4
EVVKSITRKPNLVWRYLTLD | 0.588 ± 0.44

Substance | amyloid nucleation score
TMIDNPVYPSVFRVGHDTLV | 0.356 ± 0.3
PFFWFH | -0.482 ± 0.26
TSCVLFLYTPLTGSFLAGCP | -0.46 ± 0.59
DKLVYLHWPIYNVSVLCCRG | 5.14 ± 0.095
PHYFFS | -0.593 ± 0.39
LGRKKGFMTYSGLYYVRLWA | -0.81 ± 1.4
NSIFLLSYLKLIFAVYA | inactive
FFTCNGWAGS | -0.614 ± 0.38
DVLSSNVFRNWVMVRSYSRQ | 0.795 ± 0.52
TFFYKDSDRDSCMGMLLIVC | 0.295 ± 0.44
GISFY | 1.28 ± 0.9
RMFPCYIAV | 0.015 ± 0.27
ILYNLGTWFRLC | -0.496 ± 0.61
SLLDSEGVRYLIMEL | 0.102 ± 0.4
SYMNGKWMSMWVRLWGCLAF | 0.004 ± 0.48
YVSEEMNGLVMYQSNWGSVT | 0.224 ± 0.54
WICVGYIVTTCSPELGEYRQ | inactive
YYDFGIIRSCVFSNGCVGMY | 1.62 ± 0.8
FAQWDNLSARSLKGDQRESA | 0.302 ± 0.52
HLNNCLTRRNWTRYFSRVAP | 0.95 ± 0.58
VWACSPGDVAFMP | 0.762 ± 0.97
VNSVWNGNR | -0.218 ± 0.71
ENFLTNYFYSVVTVI | -1.51 ± 1.2
SDGRNHTANYPWG | -0.182 ± 0.65
NKLCTR | inactive

Experiment: amyloid nucleation score (Sup35N fusion, yeast selection) (log enrichment); library NNK2; higher = more nucleation; inactive = no reads after selection
Procedure, shortened: as §1

Substance | amyloid nucleation score
ISSSSKVD | -0.706 ± 0.29
NKLTV | -0.381 ± 0.79
DYRMVYSCCMLGREGWRNTW | 5.606 ± 0.035
SRGVS | -0.433 ± 0.43
ASAAAHVRIYQMIFVFERQL | 0.001 ± 0.48
WLPLYMFQDQYLLKAPWISS | inactive
HDKLVTRLYWYSKCVVKGLN | -0.375 ± 1.1
MIRKVYYSF | -0.77 ± 1
KWMFEVTVYGRWYVTHQAGL | 4.827 ± 0.041
MRYRIICNFCHDVRKESLLK | -0.246 ± 0.8
TCFHR | 0.285 ± 0.55
TRNSFRSSLWVLRGGCV | -0.523 ± 0.37
FTVMFLLKMISFKGALHLRL | -0.764 ± 0.65
DAMRVASEHIIVTAAAS | 2.72 ± 0.12
CPVSAASLSNLFDVAHNGVR | 5.354 ± 0.035
RGDRSWGVRSCSRYDAAIAG | 1.71 ± 0.38
GSMSTSASVRPFWRYVFLH | inactive
PQNSIPCFAIFTWAWSMKKL | inactive
MQSINVNNVKTSTRPFFVNR | inactive
QDNFQFFAVSMRGCDCTGVS | 6.96 ± 0.048
PMFVSLVKFTYWSCTVFLGA | -0.582 ± 0.38
RCGSDLCDTFWVTLRGYGEV | 0.595 ± 0.43
YMVEV | 0.171 ± 0.34
IDYVGYMKWMMV | 0.016 ± 0.38

Substance | amyloid nucleation score
NWSGMPLPFLTFRKRFVEV | -0.998 ± 1
AVLPSIDYGCEPRL | 0.136 ± 0.5
QCWLGTGFLRVLACAVAFLY | inactive
GYRFEAPWYNGLTVYGRIFC | -1.1 ± 0.55
VTIER | 0.319 ± 0.33
KIEGHGFYYLFNWTA | -0.833 ± 0.78
QSVGATNLLG | 0.501 ± 0.34
LDFVQCILAVIQGSRDAAGA | 0.438 ± 0.64
IMYWRGFWLFASLFTILWWF | inactive
CDGAPSRLGRGLWGWSIMYG | 0.921 ± 0.51
HYLEGYRFDLEMIVCICQKG | 5.369 ± 0.049
TFDRCPNNSGNDMTNGPESW | 1.21 ± 0.096
KSVSVGQVRTCPYSFISPVL | 0.247 ± 1
DRSAIMVRCNQIFHISPIGF | 6.31 ± 0.064
TKATRINEGLLNLYALFGGK | 0.974 ± 0.17
HTYNLSKR | -1.1 ± 0.62
RYSFSLMGFDSKGNKVGIMS | 3.65 ± 0.06
PKWIPYSRRWPWAYIF | -1.2 ± 0.48
CYVSFCKGA | 0.049 ± 0.76
FSSSI | inactive
TFTVKCTDGGSCF | 1.01 ± 0.24
NYCMRGVASIG | -0.475 ± 0.45
SCPIRTL | 0.424 ± 0.43
ILDCLSYQLDDVVSAI | 3.21 ± 0.046

Substance | amyloid nucleation score
QPGSGFSVAPVQVKHNTVCR | 0.397 ± 0.33
YKVLTSPRFKEDPFLYGCWI | -0.353 ± 0.53
QHSLAMSSHKLSTTVEESWP | 0.818 ± 0.45
RYLSTLSVLYRTTSCRA | inactive
LGDERDADQIPSGIYG | 1.26 ± 0.27
MCTAFSDNHHTRTYPAPKSH | 0.196 ± 0.46
LCNGKAPCFKLCIRCLVGLW | 2.82 ± 0.13
DWTTAFSTF | -0.012 ± 0.41
SSGGIDQFGRESISHHWLC | -0.858 ± 0.76
VKHIGGISARVYKNCAASAV | -0.74 ± 0.63
FSKIIHDSALVNISWMHDGS | 0.844 ± 0.56
SLLSWRFVFCCMEYRVFLVV | inactive
PLYSPRVCFFGYAPKVCITH | -0.724 ± 0.4
LVLTDSAYRFFKRGDSVDKC | 1.62 ± 0.1
YLIDFRTRWIRISKA | -0.695 ± 0.61
CAQVRLQSAFIYSYMASVGR | 3.32 ± 0.056
YRVVTSTVKMRLWSRGVYDH | 3.07 ± 0.088
PNRKSYLAYNMDSPT | -0.32 ± 0.24
SYHFQDLW | -0.461 ± 0.25
CPFVATGDP | -0.849 ± 1.1
TYVHNKVCKNACNFSTLGPC | 0.143 ± 0.8
DVSGISDARMGKPSQWYGWY | 0.182 ± 0.38
